Assay results: patent CN107043423A (JIANGSU HENGRUI MEDICINE CO; SHANGHAI HENGRUI …, dated 2017)

Legend:
带His标签的人凝血酶 [1] = molecular target: T1, 带His标签的人凝血酶 (human, UniProt P00734 328-622); assay: ELISA, biotinylated His-tagged human thrombin on streptavidin plate
带His标签的人凝血酶 [2] = molecular target: T1, 带His标签的人凝血酶; assay: BIAcore SPR, antibody captured by anti-human capture antibody on CM5 chip, His-tagged thrombin in flow
带His标签的人凝血酶原 = molecular target: T2, 带His标签的人凝血酶原 (human, UniProt P00734 44-622); assay: BIAcore SPR, antibody captured by anti-human capture antibody on CM5 chip, His-tagged prothrombin in flow
T2 construct: Zymogen precursor of thrombin, expressed in HEK293E; also called h-prothrombin-his; 人Pro凝血酶

| Binder | EC50 (带His标签的人凝血酶 [1]) [nM] | Kd (带His标签的人凝血酶 [2]) [nM] | Kd (带His标签的人凝血酶原) [nM] |
| --- | --- | --- | --- |
| 人源化抗体H1512-8 (antibody, human IgG4 S228P, kappa, V domains shown, Humanized antibody) VH: EVQLVESGGGLVQPGGSLRLSCAASGFTVSNYDMSWVRQAPGKGLEWVSMIETDGSIFHASWVNGRFTISRDNSKNTLYLQMNSLRAEDTAVYYCARGSNDYDAYGYPYFTLWGQGTLVTVSS VL: ELVLTQSSSASASLGSSVKLTCTLSSAHETYTIDWYQQQPGKAPRYLMELKSDGSYNKGAGVPDRFSGSSSGADRYLTISNLQLEDEATYHCGADFSDGYVFGGGTKVEIKR | 19.3 |  |  |
| 人源化抗体H1512-1 (antibody, human IgG4 S228P, kappa, V domains shown, Humanized antibody) VH: EVQLVESGGGLVQPGGSLRLSCAASGFTVSNYDMSWVRQAPGKGLEWVSMIETDGSIFHASWVNGRFTISRDNSKNTLYLQMNSLRAEDTAVYYCARGSNDYDAYGYPYFTLWGQGTLVTVSS VL: QPVLTQSSSASASLGSSVKLTCTLSSAHETYTIDWHQQQPGKAPRYLMKLKSDGSYNKGAGVPDRFSGSSSGADRYLTISNLQLEDEADYYCGADFSDGYVFGGGTKVEIKR | 43.4 |  |  |
| 人源化抗体H1512-12 (antibody, human IgG4 S228P, kappa, V domains shown, Humanized antibody; also called 抗凝血酶抗体H1512-12) VH: EVQLVESGGGLVQPGGSLRLSCAASGFTVSNYDMSWVRQAPGKGLEWIGMIETDGSIFHASWVNGRFTISKDNSKNTVYLQMNSLRAEDTAVYFCVRGSNDYDAYGYPYFTLWGQGTLVTVSS VL: QLVLTQSSSASASLGSSVKLTCTLSSAHETYTIDWYQQQPGKAPRYLMELKSDGSYNKGAGVPDRFSGSSSGADRYLTISNLQLEDEATYHCGADFSDGYVFGGGTKVEIKR | 0.16 | 2.79 | 26.4 |
